# Measurements taken from publication PMC5395944, “Structural basis of inhibition of lipid-linked oligosaccharide flippase PglK by a conformational nanobody” (Scientific Reports, 2017).
# “And” between values parts separate entries of the source, which are not always exact repeats. Equal values may be shown once.
# Assays:
# [1] = target: PglK wild type (lipid-linked oligosaccharide flippase, ABC transporter) from Campylobacter jejuni (C. jejuni, UniProt Q0P9C4); test: cross-linking; 0.1% glutaraldehyde for 30 min, then high-mass MALDI mass spectrometry; PglK 18 μM and Nb 18 μM (1:2 PglK-homodimer:Nb), 10 mM HEPES pH 7.5, 100 mM NaCl, 0.016% LMNG; without nucleotides or with 5 mM MgCl2 and 5 mM ADP or ATP; settings: both partners purified
# PglK-E510Q = target: T1, PglK-E510Q (C. jejuni, UniProt Q0P9C4, E510Q); test: crystal structure; settings: both partners purified
# T1 construct: also called PglK mutant E510Q; source: E. coli BL21-Gold (DE3), purified from membranes in detergent (NiNTA, size exclusion chromatography)
binder,measurement,setting,value
"Nb87 (inhibitory conformational nanobody against PglK) (VHH, source: E. coli WK6, periplasmic extract, purified (NiNTA)) VHH: QVQLQESGGGLVQPGGSLRLSCAASGFTFSSYAMSWVRQAPGKGLEWVSAITSGGGSTSYSDAVKGRFTISRDNAKNTLYLQMNSLKPEDTAVYYCAKGYVVDFLDLAEYDSWGQGTQVTVSS",stoichiometry N,[1],1 Nb87 per PglK homodimer and 2 Nb87 per PglK homodimer
same,stoichiometry N,PglK-E510Q,1 Nb87 per PglK homodimer
